Measured values published in PMC3274541 (2012).

Target: T1, GST-AIPL1 (Homo sapiens (Human), UniProt Q9NZN9)
T1 chain: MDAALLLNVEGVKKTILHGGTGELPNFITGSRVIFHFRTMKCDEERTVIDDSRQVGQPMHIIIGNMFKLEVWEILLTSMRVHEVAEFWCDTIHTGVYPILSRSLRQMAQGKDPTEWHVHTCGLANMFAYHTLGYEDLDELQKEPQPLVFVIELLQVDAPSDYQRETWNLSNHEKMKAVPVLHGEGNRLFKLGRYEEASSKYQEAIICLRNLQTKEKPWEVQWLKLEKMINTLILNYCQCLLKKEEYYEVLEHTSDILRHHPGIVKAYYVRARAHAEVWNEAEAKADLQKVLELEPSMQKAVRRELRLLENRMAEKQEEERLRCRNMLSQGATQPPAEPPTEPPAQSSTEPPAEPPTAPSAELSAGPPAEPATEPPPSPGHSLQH
Experiment: GST pull-down

B1: His6-FAT10, recombinant purified (protein)
chain: MAPNASCLCVHVRSEEWDLMTFDANPYDSVKKIKEHVRSKTKVPVQDQVLLLGSKILKPRRSLSSYGIDKEKTIHLTLKVVKPSDEELPLFLVESGDEAKRHLLQVRRSSSVAQVKAMIETKTGIIPETQIVTCNGKRLEDGKMMADYGIRKGNLLFLACYCIGG
B1: binds.
